Data on two molecules can be found in publication PMC3045582.

Where two headings read alike, the source gives them in different places.

Data set [1] concerns the target T1, Hpy188I restriction endonuclease (native Met) (UniProt Q9KJ88 1-170).
T1 sequence: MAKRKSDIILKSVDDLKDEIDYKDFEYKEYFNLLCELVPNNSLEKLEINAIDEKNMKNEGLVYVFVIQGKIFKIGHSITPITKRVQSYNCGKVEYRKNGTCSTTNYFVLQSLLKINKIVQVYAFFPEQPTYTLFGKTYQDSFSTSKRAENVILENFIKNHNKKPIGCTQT
The experiment in a line: co-crystallization.

The target of data set [2] is T2, Hpy188I restriction endonuclease (selenomethionine variant) (UniProt Q9KJ88 1-170).
T2 sequence: T1 sequence
The experiment in a line: X-ray crystallography.

Data set [3] concerns the target T2, Hpy188I restriction endonuclease …. The experiment in a line: X-ray crystallography. This is another data set of the same source.

B1: 9-mer target oligoduplex (uncleaved) (dsDNA)
DNA 1: GATCTGAAC
DNA 2: GTTCAGATC
As for B1, the binding result in data set [1] and in data set [2] was “binds” in each case.

B2: 9-mer target oligoduplex cleaved in crystal at TCN|GA (product) (dsDNA)
DNA 1: GATCT
DNA 2: GAAC
DNA 3: GTTCA
DNA 4: GATC
Consider B2, for which the binding result in data set [3] was “binds”.
